Laboratory results: publication PMC7704052

Target: Flag-tagged MxA wildtype (human myxovirus resistance protein A) (human) (UniProt P20591)

Substance “SiAr126 nucleoprotein (NP), wildtype, from expression plasmid (natural protein)” has a SiAr126 polymerase reconstitution (minigenome firefly luciferase) in 293T cells: inhibition by co-expressed MxA compared with the inactive MxA(T103A) of 90%.
